# Experimental data: publication PMC2275076 (Nucleic Acids Research, 2007)
# B1: Methanococcus maripaludis O-phosphoseryl-tRNA:selenocysteinyl-tRNA synthase (SepSecS) (enzyme, UniProt Q6LZM9 1-436, looked up)
# chain: MLDFNIEGLIPKNMEKRGELVLNEYLKEIEDVFNHRKIPENGIDDEKIKLFLKFLSMMDTDKDPKSVRIGEREARTYSKIHEELSSGFCHGIGRSGNLVDPQPKASGASIMYALTNKILESFFKQLGLNVHAIATPISTGMSISLCLSAARKKYGSNVVIYPYASHKSPIKAVSFVGMNMRLVETVLDGDRVYVPVEDIENAIKKEIELGNRPCVLSTLTFFPPRNSDDIVEIAKICENYDIPHIINGAYAIQNNYYLEKLKKAFKYRVDAVVSSSDKNLLTPIGGGLVYSTDAEFIKEISLSYPGRASATPVVNTLVSLLSMGSKNYLELVKNQKNSKKLLDELLNDLSKKTGGKFLDVESPIASCISVNSDPVEIAAKLYNLRVTGPRGIKKTDHFGNCYLGTYTHDYIVMNAAIGVRTEDIVNSVSKLEKILL
# modifications: selenomethionine-labeled; PLP covalently bound via a Schiff base to Lys278
# Molecular target: the molecule itself
# Test: SEC
protein,measurement,value
B1,stoichiometry N,4
